Reference: article doi:10.1101/2025.07.18.665471 (bioRxiv, 2025)
Numbering of substitutions follows the chain as printed. Names and notes keep the numbering of the source. Values joined by “and” are separate entries in the source; they are usually repeats but may differ in a detail not shown here. Equal entries are not always repeated. Where two headings read alike, the source gives them in different places.

B1: MBP-PAH(RD), regulatory domain of PAH (PAH(1-112)) fused to maltose binding protein (domain or fragment, human, UniProt P00439 1-112, looked up)
chain: MSTAVLENPGLGRKLSDFGQETSYIEDNCNQNGAISLIFSLKEEVGALAKVLRLFEENDVNLTHIESRPSRLKKDEYEFFTHLDKRSLPALTNIIKILRHDIGATVHELSRD
B2: PAH-p.R261Q, PKU-associated variant of phenylalanine hydroxylase (enzyme, human)
chain: MSTAVLENPGLGRKLSDFGQETSYIEDNCNQNGAISLIFSLKEEVGALAKVLRLFEENDVNLTHIESRPSRLKKDEYEFFTHLDKRSLPALTNIIKILRHDIGATVHELSRDKKKDTVPWFPRTIQELDRFANQILSYGAELDADHPGFKDPVYRARRKQFADIAYNYRHGQPIPRVEYMEEEKKTWGTVFKTLKSLYKTHACYEYNHIFPLLEKYCGFHEDNIPQLEDVSQFLQTCTGFRLRPVAGLLSSRDFLGGLAFQVFHCTQYIRHGSKPMYTPEPDICHELLGHVPLFSDRSFAQFSQEIGLASLGAPDEYIEKLATIYWFTVEFGLCKQGDSIKAYGAGLLSSFGELQYCLSEKPKLLPLELEKTAIQNYTVTEFQPLYYVAESFNDAKEKVRNFAATIPRPFSVRYDPYTQRIEVLDNTQQLKILADSINSEIGILCSALQKIK
B3: phenylalanine hydroxylase (PAH), wild type, human (enzyme, UniProt P00439 1-452, looked up)
chain: B2 chain with Q261R
modifications: biotin (EZ-Link NHS-PEG4-Biotin), for the BLI only

Assays:
[1] = molecular target: T1, DNAJC12, wild type, human, full-length (human, UniProt Q9UKB3 1-198); test: SEC
T1 sequence (Q9UKB3 whole entry): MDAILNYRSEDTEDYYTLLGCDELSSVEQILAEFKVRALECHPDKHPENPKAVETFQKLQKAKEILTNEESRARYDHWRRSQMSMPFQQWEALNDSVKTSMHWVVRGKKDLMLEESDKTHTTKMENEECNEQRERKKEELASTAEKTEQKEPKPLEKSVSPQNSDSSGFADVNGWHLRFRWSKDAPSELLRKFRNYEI

[2] = molecular target: T1, DNAJC12, wild type, human, full-length; test: BLI
[3] = molecular target: the molecule itself; test: SEC-MALS
[4] = molecular target: T1, DNAJC12, wild type, human, full-length; test: BLI; remark: listed apart in the source

Binder | binding result [1] | Kd [2] [nM] | stoichiometry N [3] | Kd [4] [nM]
B1 | binds |  |  | 
B2 | binds |  |  | 
B3 |  | 508 ± 59 | 4 and 8 | 139 ± 19
